Legend:
[1] = target: collagen IV (from human placenta) (human); assay: ELISA; laminin, fibronectin or collagen IV (5 µg/mL, 100 µL/well) adsorbed on Maxisorp plates; galectin 0-10 µM, 1 h; peroxidase-conjugated anti-His6 antibody, TMB; apparent KD, one-site saturation fit
[2] = target: fibronectin (from human plasma) (human) (UniProt P02751); assay: as above
[3] = target: laminin (from Engelbreth-Holm-Swarm sarcoma) (not stated (Engelbreth-Holm-Swarm sarcoma; detected with an anti-mouse-laminin antibody)); assay: as above
[4] = target: asialofetuin (ASF) (bovine (from fetal calf serum)) (UniProt P12763); assay: ELISA; ASF (5 µg/mL, 200 µL/well) adsorbed on Maxisorp plates; IMAC-purified galectin 0-30 µM in PBS, 1 h; peroxidase-conjugated anti-His6 antibody, TMB; apparent KD, one-site saturation fit; binding efficiency = Bmax/KD
[5] = target: asialofetuin (ASF) (bovine (from fetal calf serum)) (UniProt P12763); assay: affinity chromatography on glycoprotein-Sepharose column; ASF or fetuin coupled to CNBr-activated Sepharose 4 Fast Flow (1 mL column); 0.2 µmol of galectin IMAC eluate applied, 15 min incubation, PBS pH 7.5, washed with 10 column volumes, eluted with a 0-0.3 M lactose gradient; eluted amount by Bradford assay; repeated three times
[6] = target: fetuin (bovine (from fetal calf serum)) (UniProt P12763); assay: as above
[7] = target: HGal-1C2S (His6-Gal-1 C2S) (human) (UniProt P09382); assay: ELISA; crosslinking assay: ASF adsorbed on Maxisorp plates, saturating galectin (50 µM Gal-1C2S, 25 µM Gal-3, 40 µM Gal-8N) bound for 1 h at room temperature, then laminin, fibronectin or collagen IV 0-50 µM for 1 h; detected with anti-ECM-protein antibodies and peroxidase-conjugated secondary antibodies; apparent KD, one-site saturation fit
[8] = target: HGal-3 (His6-Gal-3) (human) (UniProt P17931); assay: as above
[9] = target: HGal-8N (His6-Gal-8N, N-terminal domain of galectin-8) (human) (UniProt O00214); assay: as above
[10] = target: HSDsRedMGal-1C2S (His6-SNAP-DsRedM-Gal-1C2S) (human) (UniProt P09382); assay: as above
[11] = target: HSYGal-3 (His6-SNAP-yellow fluorescent protein-Gal-3) (human) (UniProt P17931); assay: as above
[12] = target: HSeGFPGal-8N (His6-SNAP-eGFP-Gal-8N) (human) (UniProt O00214); assay: as above
Chain of HSeGFPGal-8N (His6-SNAP-eGFP-Gal-8N) (human) (O00214 1-160): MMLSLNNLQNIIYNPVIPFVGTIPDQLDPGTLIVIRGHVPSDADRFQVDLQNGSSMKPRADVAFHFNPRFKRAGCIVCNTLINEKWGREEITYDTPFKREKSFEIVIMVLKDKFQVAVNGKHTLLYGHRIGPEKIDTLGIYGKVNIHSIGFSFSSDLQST

Chain of asialofetuin (ASF) (bovine (from fetal calf serum)) (P12763 19-359): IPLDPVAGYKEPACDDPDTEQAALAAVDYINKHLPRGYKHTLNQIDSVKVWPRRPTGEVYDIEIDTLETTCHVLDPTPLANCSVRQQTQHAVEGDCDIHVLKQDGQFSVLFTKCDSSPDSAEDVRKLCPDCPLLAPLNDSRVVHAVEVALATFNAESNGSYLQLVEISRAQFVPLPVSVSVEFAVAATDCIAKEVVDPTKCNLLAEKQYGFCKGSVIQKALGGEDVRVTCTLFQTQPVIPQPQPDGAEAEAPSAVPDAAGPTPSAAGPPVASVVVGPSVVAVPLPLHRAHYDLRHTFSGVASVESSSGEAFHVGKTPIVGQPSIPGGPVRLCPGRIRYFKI
Chain of collagen IV (from human placenta) (human) (P02462 173-1669, chain 1 of 2): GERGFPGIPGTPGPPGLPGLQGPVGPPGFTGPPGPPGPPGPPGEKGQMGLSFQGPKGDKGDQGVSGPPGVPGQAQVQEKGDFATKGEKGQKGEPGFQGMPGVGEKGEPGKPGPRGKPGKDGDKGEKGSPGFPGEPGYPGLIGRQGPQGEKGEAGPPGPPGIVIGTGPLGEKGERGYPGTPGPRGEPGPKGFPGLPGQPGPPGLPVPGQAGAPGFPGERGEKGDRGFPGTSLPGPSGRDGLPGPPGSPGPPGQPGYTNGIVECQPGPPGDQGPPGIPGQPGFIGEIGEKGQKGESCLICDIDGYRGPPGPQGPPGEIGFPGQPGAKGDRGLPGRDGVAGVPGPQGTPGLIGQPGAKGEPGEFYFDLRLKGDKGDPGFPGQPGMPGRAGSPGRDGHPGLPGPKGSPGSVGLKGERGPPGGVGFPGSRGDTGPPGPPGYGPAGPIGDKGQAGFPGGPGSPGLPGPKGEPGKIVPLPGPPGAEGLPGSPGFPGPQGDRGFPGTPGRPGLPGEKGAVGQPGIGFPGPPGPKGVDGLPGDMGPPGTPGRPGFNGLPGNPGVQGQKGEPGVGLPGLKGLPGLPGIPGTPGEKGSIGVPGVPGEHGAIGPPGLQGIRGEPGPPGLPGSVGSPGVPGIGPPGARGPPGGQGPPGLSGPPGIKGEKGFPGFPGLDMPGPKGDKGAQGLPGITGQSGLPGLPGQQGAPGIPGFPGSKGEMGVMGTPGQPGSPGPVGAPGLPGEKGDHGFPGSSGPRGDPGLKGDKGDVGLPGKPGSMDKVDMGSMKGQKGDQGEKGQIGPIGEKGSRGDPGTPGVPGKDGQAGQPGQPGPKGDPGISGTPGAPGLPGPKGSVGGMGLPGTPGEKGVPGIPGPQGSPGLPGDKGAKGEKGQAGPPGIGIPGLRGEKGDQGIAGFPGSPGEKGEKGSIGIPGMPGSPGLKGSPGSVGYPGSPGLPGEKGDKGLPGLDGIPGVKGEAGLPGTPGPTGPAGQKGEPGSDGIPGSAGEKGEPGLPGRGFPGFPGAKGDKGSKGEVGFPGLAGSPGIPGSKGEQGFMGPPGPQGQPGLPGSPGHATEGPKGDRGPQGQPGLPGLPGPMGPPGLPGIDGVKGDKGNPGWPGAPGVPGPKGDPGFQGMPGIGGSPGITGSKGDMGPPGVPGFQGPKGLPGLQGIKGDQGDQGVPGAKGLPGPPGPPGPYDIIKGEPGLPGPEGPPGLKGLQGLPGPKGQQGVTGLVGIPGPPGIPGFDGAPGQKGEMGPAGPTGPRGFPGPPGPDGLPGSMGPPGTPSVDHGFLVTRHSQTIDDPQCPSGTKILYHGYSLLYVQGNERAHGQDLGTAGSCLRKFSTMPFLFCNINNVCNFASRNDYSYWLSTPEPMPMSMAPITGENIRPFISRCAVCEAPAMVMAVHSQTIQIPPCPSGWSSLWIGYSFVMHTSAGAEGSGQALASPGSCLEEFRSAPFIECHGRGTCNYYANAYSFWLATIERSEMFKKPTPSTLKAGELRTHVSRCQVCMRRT
Chain of collagen IV (from human placenta) (human) (P08572 184-1712, chain 2 of 2, further chain): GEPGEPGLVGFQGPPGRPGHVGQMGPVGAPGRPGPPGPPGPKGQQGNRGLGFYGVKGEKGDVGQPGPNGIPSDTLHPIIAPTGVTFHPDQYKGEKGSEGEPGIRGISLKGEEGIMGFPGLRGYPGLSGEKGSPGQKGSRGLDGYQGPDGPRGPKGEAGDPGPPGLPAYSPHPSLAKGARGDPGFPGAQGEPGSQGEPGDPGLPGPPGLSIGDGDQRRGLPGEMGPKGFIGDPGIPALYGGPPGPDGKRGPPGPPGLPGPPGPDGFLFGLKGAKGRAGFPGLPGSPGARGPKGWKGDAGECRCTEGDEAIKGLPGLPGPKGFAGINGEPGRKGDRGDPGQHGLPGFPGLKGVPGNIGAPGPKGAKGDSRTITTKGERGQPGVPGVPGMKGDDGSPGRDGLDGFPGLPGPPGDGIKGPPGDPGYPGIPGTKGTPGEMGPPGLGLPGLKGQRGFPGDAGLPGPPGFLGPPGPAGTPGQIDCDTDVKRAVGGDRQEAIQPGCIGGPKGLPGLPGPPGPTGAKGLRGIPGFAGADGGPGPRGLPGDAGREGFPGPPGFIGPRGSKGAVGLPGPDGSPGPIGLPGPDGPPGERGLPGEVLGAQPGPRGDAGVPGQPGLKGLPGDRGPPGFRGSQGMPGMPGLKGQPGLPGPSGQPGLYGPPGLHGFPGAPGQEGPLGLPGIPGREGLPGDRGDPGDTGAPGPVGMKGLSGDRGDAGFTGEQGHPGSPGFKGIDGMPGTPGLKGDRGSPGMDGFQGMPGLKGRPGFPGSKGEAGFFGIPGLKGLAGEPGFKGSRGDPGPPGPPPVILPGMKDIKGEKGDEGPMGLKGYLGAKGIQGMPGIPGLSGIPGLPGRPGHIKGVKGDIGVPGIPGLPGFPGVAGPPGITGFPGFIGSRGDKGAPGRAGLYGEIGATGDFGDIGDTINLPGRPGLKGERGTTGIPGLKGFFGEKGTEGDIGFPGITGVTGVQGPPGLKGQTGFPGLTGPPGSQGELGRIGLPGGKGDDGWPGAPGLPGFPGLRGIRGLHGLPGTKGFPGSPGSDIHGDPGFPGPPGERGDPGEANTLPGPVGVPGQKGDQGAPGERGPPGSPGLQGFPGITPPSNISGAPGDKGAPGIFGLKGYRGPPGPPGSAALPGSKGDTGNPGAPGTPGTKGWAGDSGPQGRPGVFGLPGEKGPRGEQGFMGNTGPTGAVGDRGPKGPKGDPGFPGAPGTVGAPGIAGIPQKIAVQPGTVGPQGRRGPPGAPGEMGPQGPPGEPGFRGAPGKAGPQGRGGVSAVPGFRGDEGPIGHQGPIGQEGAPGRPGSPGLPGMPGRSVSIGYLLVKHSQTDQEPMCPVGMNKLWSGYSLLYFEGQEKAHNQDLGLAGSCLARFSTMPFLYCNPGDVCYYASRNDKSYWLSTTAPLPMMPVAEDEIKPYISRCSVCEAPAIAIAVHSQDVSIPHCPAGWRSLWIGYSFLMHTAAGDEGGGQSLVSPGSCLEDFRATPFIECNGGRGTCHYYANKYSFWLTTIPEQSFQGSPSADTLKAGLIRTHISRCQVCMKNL
Chain of HGal-8N (His6-Gal-8N, N-terminal domain of galectin-8) (O00214 1-160): as the sequence (O00214 1-160) above
Chain of HSeGFPGal-8N (His6-SNAP-eGFP-Gal-8N) (O00214 1-160): as above
Chain of fetuin (bovine (from fetal calf serum)) (P12763 19-359): as the sequence (P12763 19-359) above
Chain of HGal-8N (His6-Gal-8N, N-terminal domain of galectin-8) (human) (O00214 1-160): as the sequence (O00214 1-160) above

| Substance | Kd [2] | Kd [3] | Kd [4] | apparent binding efficiency (Bmax/KD) [4] | further results |
| --- | --- | --- | --- | --- | --- |
| laminin (from Engelbreth-Holm-Swarm sarcoma) (complex) | – | – | – | – | Kd [7]: 380 nM; Kd [8]: 270 nM; Kd [9]: 69500 nM; Kd [10]: 370 nM; Kd [11]: 450 nM; Kd [12]: 270 nM |
| HSGal-1C2S (His6-SNAP-Gal-1C2S, without fluorescent protein) (from UniProt P09382 1-135) (natural protein) | – | – | 800 nM | 1.1 µM⁻¹ | – |
| HSeGFPGal-8N (His6-SNAP-eGFP-Gal-8N) (from UniProt O00214 1-160) (domain or fragment) | 60 nM | 40 nM | – | – | – |
| HDsRedMGal-1C2S (His6-DsRedM-Gal-1C2S, without SNAP-tag) (from UniProt P09382 1-135) (natural protein) | – | – | 8800 nM | 0.1 µM⁻¹ | – |
| HGal-8C (His6-Gal-8C, C-terminal domain of galectin-8) (from UniProt O00214 182-317) (domain or fragment) | – | – | – | – | percent of applied galectin bound and eluted [5]: 3% |
| fibronectin (from human plasma) (from UniProt P02751 32-2477) (natural protein) | – | – | – | – | Kd [8]: 5100 nM; Kd [11]: 10000 nM |

Now from value to substance, other results behind:

| Kd [2] | Kd [3] | Kd [4] | apparent binding efficiency (Bmax/KD) [4] | Substance | further results |
| --- | --- | --- | --- | --- | --- |
| 1970 nM | 420 nM | 500 nM | 1.6 µM⁻¹ | HGal-1C2S (His6-Gal-1 C2S) (from UniProt P09382 1-135) (natural protein) | Kd [1]: 1340 nM; percent of applied galectin bound and eluted [5]: 70%; percent of applied galectin bound and eluted [6]: 30% |
| 430 nM | 130 nM | – | – | HGal-3 (His6-Gal-3) (from UniProt P17931 1-250) (natural protein) | – |
| 110 nM | 110 nM | 600 nM | 1.4 µM⁻¹ | HSDsRedMGal-1C2S (His6-SNAP-DsRedM-Gal-1C2S) (from UniProt P09382 1-135) (natural protein) | Kd [1]: 140 nM; percent of applied galectin bound and eluted [5]: 4% |
| 110 nM | 70 nM | – | – | HSYGal-3 (His6-SNAP-yellow fluorescent protein-Gal-3) (from UniProt P17931 1-250) (natural protein) | – |
| 520 nM | 180 nM | – | – | HGal-8N (His6-Gal-8N, N-terminal domain of galectin-8) (from UniProt O00214 1-160) (domain or fragment) | – |

— article PMC9919667
